27 sequences from the supplement of paper PMC9170038 can be followed below.

In the data set the test system is MS2 coat protein. Description: apparent KD of MS2 coat protein; designed switch direction (-1 OFF switch, 1 ON switch): -1; higher = weaker reporter binding. The procedure, abridged: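 Each step of the titration lasted 0.8–1.5 h at the lowest concentration and 10–20 min at the highest. The protein, SNAP-549-labelled MS2 coat protein, went from 0.7 or 1.5 nM doubling to 3 µM over RNA switches transcribed on Illumina chips by stalled E. coli RNA polymerase. Normalised cluster fluorescence was curve-fitted, and the per-design median over clusters is given as apparent KD.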

Where [1] appears, read: Eterna round: R95, input ligand: FMN 200 uM.
Setting [2] is: Eterna round: R95, input ligand: microRNA oligo, concentration not stated.
The mark [3] stands for this setting: Eterna round: R95, input ligand: none.
The mark [4] stands for this setting: input ligand: microRNA oligo, concentration not stated.

Turning to “CUUGACUGAGGAUAUUGUGCUGCUGACAUGAGGAUCACCCAUGUAUGUUAACUCGGCCGUCGAGAAGGCAGAAAGG [BotMod 19 - Jieux - Exclusion 5] (Eterna round: R97, puzzle: Exclusion 5)”, the “apparent KD of MS2 coat protein” value runs as follows: (input ligand: FMN 200 uM) 14.2 nM; (input ligand: none) 40.8 nM.

Regarding “CUUGUAAAUGUGAGGAUAUACUGUUAGUAAAGUUAGUAGAAGGUACAUGAGGAUCACCCAUGUUAAUUACUCUA [JR_BME4_Sub047] (puzzle: Brourd's mod of Exclusion 4)”, the “apparent KD of MS2 coat protein” value is, setting by setting: under setting [1], 15.9 nM; under setting [2], 13.2 nM; under setting [3], 14.5 nM.

For the sequence “CUUGUAUAUCAGGAUAUGAUUUUAUAUAUUGGAUCAGAAGGGAUAACAUGAGGAUCACCCAUGUUGUGGAGUGA [JR_Ex6_Sub038] (Eterna round: R97, puzzle: Exclusion 6)”, the “apparent KD of MS2 coat protein” value by setting is: (input ligand: FMN 200 uM) 90.5 nM; (input ligand: none) 204 nM.

For “CUUGUUUAUGUGAGGAUAUACUGUUAGUAAUGUUUGUAGAAGGUACAUGAGGAUCACCCAUGUUUAUUUCCUUU [JR_BME4_Sub045] (puzzle: Brourd's mod of Exclusion 4)”, the “apparent KD of MS2 coat protein” value under setting [2] came to 13.8 nM.

For the sequence “CUUUACAUAGGAUAUAGUUGCUUUUACAUGAGGAUCACCCAUGUCUCUCCUCUCUCUCUUCUAGAAGGAUGUUUCU [JR_E5_Sub010] (puzzle: Exclusion 5)”, the “apparent KD of MS2 coat protein” value under setting [2] was 56 nM.

With “CUUUCGUGAGGAUAUGUGGCUAAAAUCGUGAGAUCGAGGCUACAGAAGGCACAUGAGGAUCACCCAUGUUCCUC [salish99_ex4_r4_212] (Eterna round: R97, puzzle: Exclusion 4)”, the “apparent KD of MS2 coat protein” value runs as follows: (input ligand: FMN 200 uM) 379 nM; (input ligand: none) 38.3 nM.

As to “CUUUUGGCAGGAUAUGCUUUUUUUGACAUGAGGAUCACCCAUGUGAUGCAUUUUGGGUUUGCAGAAGGGCCUGAGU [JR_E5_Sub036] (puzzle: Exclusion 5)”, the “apparent KD of MS2 coat protein” value under setting [2] stood at 56.9 nM.

With “CUUUUGUCAGGAUAUGAGUAGUAGAACAAUAGUACUACUACUCAGAAGGGACAUGAGGAUCACCCAUGUUCCUC [Fiskers Ex 4 Super stable 44 mod 19] (puzzle: Exclusion 4)”, under setting [2], the “apparent KD of MS2 coat protein” value came to 16.2 nM.

“CUUUUGUGAGGAUAUCAGGUGUGCUAGCGUACUGGUACAUCUGAGAAGGCACAUGAGGAUCACCCAUGUUUCUU [JL-ex4-3.19 Brourd mod] (puzzle: Exclusion 4)”: the “apparent KD of MS2 coat protein” value under setting [2] worked out at 27.1 nM.

In the case of “CUUUUGUGAGGAUAUCAGUAGUAAAAAAAUAAAAUUACUACUGAGAAGGCACAUGAGGAUCACCCAUGUUCCUC [EX4 344: Super Stable 44] (Eterna round: R96, puzzle: Exclusion 4)”, the “apparent KD of MS2 coat protein” value amounted to 343 nM (input ligand: FMN 200 uM), 36.3 nM under setting [4] and 42.4 nM (input ligand: none).

Regarding “CUUUUGUGAGGAUAUCAGUAGUAAAAAAAUAAAAUUACUACUGAGAAGGCACAUGAGGAUCACCCAUGUUCCUC [salish99_ex4_r3_009] (puzzle: Exclusion 4)”, the “apparent KD of MS2 coat protein” value under setting [1] was 257 nM, the “apparent KD of MS2 coat protein” value under setting [2] was found to be 39.7 nM and the “apparent KD of MS2 coat protein” value under setting [3] is 38.4 nM.

“CUUUUGUGAGGAUAUCAGUAGUAAAGAAAUAAAAUUACUACUGAGAAGGCACAUGAGGAUCACCCAUGUUCCUC [Mat - Exclusion 4 - Mod of Salish - D62] (puzzle: Exclusion 4)”: the “apparent KD of MS2 coat protein” value under setting [2] turned out to be 36.2 nM.

With “CUUUUGUGAGGAUAUCAGUAGUAAAUAAAUAAUAUUACUACUGAGAAGGCACAUGAGGAUCACCCAUGUUCCUC [salish99_ex3_r3_083] (Eterna round: R96, puzzle: Exclusion 4)”, the “apparent KD of MS2 coat protein” value stood at 385 nM (input ligand: FMN 200 uM), 39 nM under setting [4] and 45.3 nM (input ligand: none).

Consider “CUUUUGUGAGGAUAUCAGUAGUAAAUAAAUAAUAUUACUACUGAGAAGGCACAUGAGGAUCACCCAUGUUCCUC [salish99_ex3_r3_083] (puzzle: Exclusion 4)”, for which the “apparent KD of MS2 coat protein” value under setting [2] was 42.3 nM.

Regarding “CUUUUGUGAGGAUAUCAGUAGUAAAUAAAUAUAAUUACUACUGAGAAGGCACAUGAGGAUCACCCAUGUUCCUC [salish99_ex3_r3_082] (puzzle: Exclusion 4)”, the “apparent KD of MS2 coat protein” value under setting [2] is 38.2 nM.

Regarding “CUUUUGUGAGGAUAUCAGUAGUAAUACAAUAGUAUUACUACUGAGAAGGCACAUGAGGAUCACCCAUGUUCCUU [Ex4 344 Omei mod 1] (puzzle: Exclusion 4)”, under setting [2], the “apparent KD of MS2 coat protein” value is 14.5 nM.

Turning to “CUUUUGUGAGGAUAUCAGUAGUAUAAAAUAAAAUAUACUACUGAGAAGGCACAUGAGGAUCACCCAUGUUCCUC [Mat - Exclusion 4 - Mod of Salish - D71] (puzzle: Exclusion 4)”, the “apparent KD of MS2 coat protein” value under setting [2] was 38.5 nM.

As for “CUUUUGUGAGGAUAUCAGUAUUAAAAAAAUAAAAUUACUACUGAGAAGGCACAUGAGGAUCACCCAUGUUCCUC [salish99_ex4_r3_032] (puzzle: Exclusion 4)”, under setting [2], the “apparent KD of MS2 coat protein” value was determined as 34.4 nM.

Consider “CUUUUGUGAGGAUAUCAGUUGUAAAUAAAUAAAAUUACUACUGAGAAGGCACAUGAGGAUCACCCAUGUUCCUC [salish99_ex3_r3_073] (puzzle: Exclusion 4)”, for which, under setting [2], the “apparent KD of MS2 coat protein” value is 37.8 nM.

For “CUUUUGUGAGGAUAUCGGUAGUAAUACAAUAGUAUUACUACUGAGAAGGCACAUGAGGAUCACCCAUGUUCCUC [Ex4 344 Omei mod 9] (puzzle: Exclusion 4)”, the “apparent KD of MS2 coat protein” value under setting [2] stood at 43 nM.

In the case of “CUUUUGUGAGGAUAUGGUAACGAUGACAUGAGGAUCACCCAUGUAACAUGGGACUUGAGACUAGAAGGCACUAACG [JR_Ex5_Sub025] (Eterna round: R97, puzzle: Exclusion 5)”, the “apparent KD of MS2 coat protein” value is 94.7 nM (input ligand: FMN 200 uM) and 134 nM (input ligand: none).

As to “CUUUUGUGAGGAUAUUAGUAGUAAAUAAAUAAAAUUAUUACUGAGAAGGUACAUGAGGAUCACCCAUGUUCCUU [Salish 062 v21] (Eterna round: R97, puzzle: Exclusion 4)”, the “apparent KD of MS2 coat protein” value (input ligand: FMN 200 uM) came out at 12.8 nM and the “apparent KD of MS2 coat protein” value (input ligand: none) came to 19.9 nM.

On to “CUUUUGUGAGGAUAUUAGUAGUAAAUAAAUAAAUUUACUACUGAGAAGGCACAUGAGGAUCACCCAUGUUCCUC [salish99_ex4_r3_060] (Eterna round: R96, puzzle: Exclusion 4)”, for which the “apparent KD of MS2 coat protein” value (input ligand: FMN 200 uM) came to 703 nM, the “apparent KD of MS2 coat protein” value under setting [4] is 38.5 nM and the “apparent KD of MS2 coat protein” value (input ligand: none) was 40.9 nM.

Turning to “CUUUUGUGAGGAUAUUAGUAGUAAAUAAAUAAAUUUACUACUGAGAAGGCACAUGAGGAUCACCCAUGUUCCUC [salish99_ex4_r3_060] (puzzle: Exclusion 4)”, under setting [2], the “apparent KD of MS2 coat protein” value was determined as 33.7 nM.

Turning to “CUUUUGUGAGGAUAUUAGUAGUUUAUAAUUAAAAUUAUUACUGAGAAGGCACAUGAGGAUCACCCAUGUAAAAC [JR_Ex4_Sub029] (Eterna round: R97, puzzle: Exclusion 4)”, the “apparent KD of MS2 coat protein” value is, setting by setting: (input ligand: FMN 200 uM) 122 nM; (input ligand: none) 104 nM.

In the case of “CUUUUUUGAGGAUAUUAGUAGUAAAUAAAUAAAAUUACUACUGAGAAGGCACAUGAGGAUCACCCAUGUUCCUC [salish99_ex4_r3_046] (puzzle: Exclusion 4)”, the “apparent KD of MS2 coat protein” value under setting [2] is 17.6 nM.

For the sequence “GAAAACGCAGAGGAUAUUCCAGAUCUAAGCUGCGAAGAAGGCUGCACAUGAGGAUCACCCAUGUGGUCUUUAAA [Maoned] (Eterna round: R96, puzzle: Exclusion 6)”, the “apparent KD of MS2 coat protein” value under setting [4] was 13.7 nM.
